Consider four molecules from patent publication US20260250737A1, “Engineered Luciferases and Luciferin Substrates” (Monod Bio, Inc., priority 2023, published 2026).

Positions count from the first letter of the chain named. Like-named read-outs stand apart in the source and are kept apart here.

For one experiment, the system named is LuxSit. Format: biochemical. The settings on record: inclusion in assay buffer at pH8. Here is the method:
Assay buffers that increase and stabilize the signal output of luciferase assay were tested. Inclusion of Imidazole increased the brightness of LuxSit at pH8.
In-well concentrations were 185 pM of enzyme and 10 μM DTZ. […] In-well concentrations of DTZ was 10 μM.

Experiment [1] is described as follows: Luciferase activity of circularly permuted LuxSit-i variants. The settings on record: circularly permuted proteins; 5 nM protein, 10 μM DTZ. Format: biochemical. Here is the method: FIG. 6A provides kinetic profile over one hour of circularly permuted LuxSit-i variants. Variants were diluted in PBS and combined 1:1 with DTZ substrate, resulting in final in-well concentrations of 5 nM protein/variant and 10 μM DTZ.
Variants were diluted in PBS and combined 1:1 with DTZ substrate, resulting in final in-well concentrations of 5 nM protein and 10 μM DTZ.

The target of experiment [2] is T1, LgLux_4039.
T1 chain: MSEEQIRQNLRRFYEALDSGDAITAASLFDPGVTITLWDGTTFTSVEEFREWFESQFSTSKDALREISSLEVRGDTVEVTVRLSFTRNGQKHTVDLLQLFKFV
The experiment is described as follows: cell-based or functional assay.

A further experiment deals with T2, MBIO-5339.
T2 chain: T1 chain with R11L, I23V, S45T
As to the kind of experiment: cell-based or functional assay.

The next experiment deals with T3, MBIO-5342.
T3 chain: T1 chain with E54G, S55T, R87S
The experiment is described as follows: cell-based or functional assay.

The next experiment addresses T4, MBIO-5341.
T4 chain: T1 chain with P31S
The experiment is described as follows: cell-based or functional assay.

The next experiment deals with T5, MBIO-5340.
T5 chain: T1 chain with S2T, I6L, R11L, E48K
The experiment is described as follows: cell-based or functional assay.

In experiment [3] the target is T6, LgLux_4039 variant S19C (SEQ ID NO:2805).
T6 chain: T1 chain with S19C
The experiment is described as follows: cell-based or functional assay.

For experiment [4], the target named is T1, LgLux_4039. As to the kind of experiment: cell-based or functional assay.
The next experiment has as its target T7, MBIO-5335.
T7 chain: T1 chain with S2C, R11L, V46I, E54D
The experiment is described as follows: cell-based or functional assay.

Another experiment has as its target T8, MBIO-5336.
T8 chain: T1 chain with R11L
The experiment is described as follows: cell-based or functional assay.

A further experiment concerns the target T9, MBIO-5337.
T9 chain: T1 chain with R11L, D30N
As to the kind of experiment: cell-based or functional assay.

Another experiment addresses T10, MBIO-5338.
T10 chain: T1 chain with T41A, H92Q
The experiment is described as follows: cell-based or functional assay.

Consider `c1c[nH]cn1` [Imidazole], for which the “brightness of LuxSit” value with LuxSit is recorded as “increased”.

B1: SEQ ID NO 2227: circularly permuted protein from MBIO-148, inpaint length 32 (protein)
chain: GQKHVVVLVHTFRFRGNRVTEVEVEIIPCPSLDEASIAAAIAEAEALAAERLAELGAPPPSISEEQIRQFLRRFYEALDSGDADTAASLFHPGVTIHLWDGVTFTSREEFREWFERLFSTSKDAWREIVSLRVVGDTVVVVVVLHFTLN
Turning to B1, in experiment [1], the “luciferase activity compared to SEQ ID NO:2600” value is “similar”.

B2: SEQ ID NO 2236: circularly permuted protein from MBIO-148, inpaint length 32 (protein)
chain: GQKHVVVLVHTFRFRGNRVTEVRVEIIPAPSLDEESIEARVAEARRLAEERLAELGDPPPSISEEQIRQFLRRFYEALDSGDADTAASLFHPGVTIHLWDGVTFTSREEFREWFERLFSTSKDAWREIVELRVRGDTVVVVVVLHFTLN
With B2, the “luciferase activity compared to SEQ ID NO:2600” value in experiment [1] is recorded as “similar”.
Regarding RVVAVRVYVNPTG [SmLux_4039], the “Baseline Signal (Normalized by expression)” value with LgLux_4039 [2] was found to be 123000; in the experiment with MBIO-5339 it was 28300; in the experiment with MBIO-5342, 3360; with MBIO-5341 it was 10400; with MBIO-5340, 6670; in experiment [3] it was 3670. For the same molecule, the “Baseline Signal (Normalized by expression)” value came to 22100 in the experiment with LgLux_4039 [4]; 23800 with MBIO-5335; 16400 with MBIO-5336; 14900 with MBIO-5337; 18900 in the experiment with MBIO-5338. In addition, the “Fold change upon Rap addition” value with LgLux_4039 [2] worked out at 1.5 fold; with MBIO-5339 it was 1.9 fold; with MBIO-5342, 2 fold; with MBIO-5341, 2.2 fold; with MBIO-5340, 2.2 fold; in experiment [3], 2 fold. Besides, the “Fold change upon Rap addition” value in the experiment with LgLux_4039 [4] was determined as 1.9 fold; with MBIO-5335, 1.9 fold; with MBIO-5336, 2.1 fold; with MBIO-5337, 2.1 fold; with MBIO-5338 it was 2.2 fold.
